This assay addresses human CTLA-4Ig fusion protein (extracellular domain of human CTLA-4 and the Fc fragment of human IgG1) (human) (UniProt P16410). In words: Biacore SPR, huCTLA-4Ig immobilized by amine coupling, mAb injected, 25 C. On the technique in general: SPR reads the build-up and loss of mass on a sensor chip optically.
UniProt P16410, sequence (P16410 36-161): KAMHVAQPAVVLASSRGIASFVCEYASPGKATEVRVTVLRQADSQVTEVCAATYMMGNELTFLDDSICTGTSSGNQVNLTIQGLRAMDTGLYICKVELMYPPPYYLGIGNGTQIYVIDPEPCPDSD

B1: anti-human CTLA-4 mAb clone L3D10 (antibody, from another filing, V domains shown)
VH: QVQLKESGPGLVAPSQSLSITCTVSGFSLTSYGLSWVRQPPGKGLEWLGVIWYDGNTNFHSALISRLTISKDNSKSQVFLELNSLQTDDTATYYCAKTEGHYYGSNYGYYALDYWGQGTSVTVSS
VL: DIQMTQSPASLSVSVGETVTITCRASENIYSNLAWYQQKQGKSPQLLVYAATNLADGVPSRFSGSGSGTQYSLKINSLQSEDFGTYFCQHLWGTPYTFGGGTKLEIKR
As a reminder, the Kd is the concentration at which binding is half-saturated. As a reminder, the koff is a measure of how fast the partners let go of each other. A higher koff goes with fast dissociation. The term kon denotes the second-order rate constant of association. In turn, B1 registered a Kd of 3.06 nM, a koff of 0.000633 s⁻¹ and an association rate constant (kon) of 207000 M⁻¹ s⁻¹.
